Reference: IntAct's records for PubMed 24685146

B1: Vinculin (Gallus gallus (Chicken)), P12003-1 (parent)
chain: MPVFHTRTIESILEPVAQQISHLVIMHEEGEVDGKAIPDLTAPVSAVQAAVSNLVRVGKETVQTTEDQILKRDMPPAFIKVENACTKLVRAAQMLQADPYSVPARDYLIDGSRGILSGTSDLLLTFDEAEVRKIIRVCKGILEYLTVAEVVETMEDLVTYTKNLGPGMTKMAKMIDERQQELTHQEHRVMLVNSMNTVKELLPVLISAMKIFVTTKNTKSQGIEEALKNRNFTVEKMSAEINEIIRVLQLTSWDEDAWASKDTEAMKRALALIDSKMNQAKGWLRDPNAPPGDAGEQAIRQILDEAGKAGELCAGKERREILGTCKTLGQMTDQLADLRARGQGATPMAMQKAQQVSQGLDLLTAKVENAARKLEAMTNSKQAIAKKIDAAQNWLADPNGGSEGEEHIRGIMSEARKVAELCEEPKERDDILRSLGEISALTAKLSDLRRHGKGDSPEARALAKQIATSLQNLQSKTNRAVANTRPVKAAVHLEGKIEQAQRWIDNPTVDDRGVGQAAIRGLVAEGRRLANVMMGPYRQDLLAKCDRVDQLAAQLADLAARGEGESPQARAIAAQLQDSLKDLKARMQEAMTQEVSDVFSDTTTPIKLLAVAATAPSDTPNREEVFEERAANFENHAARLGATAEKAAAVGTANKTTVEGIQATVKSARELTPQVVSAARILLRNPGNQAAYEHFETMKNQWIDNVEKMTGLVDEAIDTKSLLDASEEAIKKDLDKCKVAMANMQPQMLVAGATSIARRANRILLVAKREVENSEDPKFREAVKAASDELSKTISPMVMDAKAVAGNISDPGLQKSFLDSGYRILGAVAKVREAFQPQEPDFPPPPPDLEHLHLTDELAPPKPPLPEGEVPPPRPPPPEEKDEEFPEQKAGEAINQPMMMAARQLHDEARKWSSKGNDIIAAAKRMALLMAEMSRLVRGGSGNKRALIQCAKDIAKASDEVTRLAKEVAKQCTDKRIRTNLLQVCERIPTISTQLKILSTVKATMLGRTNISDEESEQATEMLVHNAQNLMQSVKETVREAEAASIKIRTDAGFTLRWVRKTPWYQ

Variants of: B1
Conditions: with acts_rabit ACTA1, P68135

Variant	effect of a mutation on the interaction
I997A	decreasing interaction strength
V1001A	decreasing interaction strength
